B1: Cell surface glycoprotein CD200 receptor 4 (Mus musculus), Q6XJV4 (parent)
chain: MHALGRIPTLTLLIFINIFVSGSSCTDENQTIQNDSSSSLTQVNTTMSVQMDKKALLCCFSSPLINAVLITWIIKHRHLPSCTIAYNLDKKTNETSCLGRNITWASTPDHSPELQISAVALQHEGTYTCEIVTPEGNLEKVYDLQVLVPPEVTYFPGKNRTAVCEAMAGKPAAQISWTPDGDCVTKSESHSNGTVTVRSTCHWEQNNVSVVSCLVSHSTGNQSLSIELSQGTMTTPRSLLTILYVKMALLVIILLNVGFAFFQKRNFART
partner: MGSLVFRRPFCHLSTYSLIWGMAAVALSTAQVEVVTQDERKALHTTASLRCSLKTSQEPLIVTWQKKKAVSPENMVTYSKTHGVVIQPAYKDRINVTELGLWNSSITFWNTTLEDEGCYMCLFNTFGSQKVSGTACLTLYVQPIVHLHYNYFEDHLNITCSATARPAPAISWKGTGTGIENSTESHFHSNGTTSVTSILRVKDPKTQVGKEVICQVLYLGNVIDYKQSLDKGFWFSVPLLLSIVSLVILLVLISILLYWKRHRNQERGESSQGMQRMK
B2: OX-2 membrane glycoprotein (Mus musculus), O54901 (parent)
chain: B1 partner
partner: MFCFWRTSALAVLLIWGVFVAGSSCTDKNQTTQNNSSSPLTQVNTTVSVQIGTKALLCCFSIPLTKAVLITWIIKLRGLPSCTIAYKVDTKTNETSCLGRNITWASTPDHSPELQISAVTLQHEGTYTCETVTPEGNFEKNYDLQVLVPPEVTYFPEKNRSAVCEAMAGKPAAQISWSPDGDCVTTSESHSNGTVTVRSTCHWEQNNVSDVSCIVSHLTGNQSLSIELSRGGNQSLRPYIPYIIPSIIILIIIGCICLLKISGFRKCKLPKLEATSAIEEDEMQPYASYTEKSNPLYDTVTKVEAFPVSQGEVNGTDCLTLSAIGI

Variants of: B1
Conditions: with ox2g_mouse Cd200, O54901

| Variant | effect of a mutation on the interaction |
| --- | --- |
| N87K;K90T | increasing interaction strength |
| L138F | increasing interaction strength |
| N87K;K90T;L138F | increasing interaction strength |

Variants of: B2
Conditions: with mo2r1_mouse Cd200r1, Q9ES57

| Variant | effect of a mutation on the interaction |
| --- | --- |
| N74D | disrupting interaction strength |
| N74A | disrupting interaction strength |
| I61E | disrupting interaction strength |
| N124K | disrupting interaction strength |
| F126A | disrupting interaction strength |
| F126D | disrupting interaction strength |
| K130E | disrupting interaction strength |
| L60K | disrupting interaction strength |
| L122A | disrupting interaction strength |
